The source of these data is patent US8450284B2, “Coiled-coil lipopeptide helical bundles and synthetic virus-like particles” (Universitaet Zuerich, priority 2006, dated 2013).

Where “and” joins values, the source holds several entries; their conditions need not be identical. Equal values may be shown once. Ends that are not written are not given here.

Series [1] concerns Rabbits. The series is described as follows: Immunization of rabbits, ELISA for antibodies binding the conjugate used for immunization (Table 1). The series is classed as in vivo, rabbit. Particulars: 150 μg conjugate, ELISA on the immunogen; for log10 (Endpoint titers) 3°: after second booster (serum day 66), rabbits in groups of two, each group given one conjugate; for log10 (Endpoint titers) 2°: after first booster (serum day 38). As for the experimental part: (§1) Rabbits (groups of two) were each immunized with 150 μg of one conjugate, reconstituted and equilibrated for at least 1 h at r.t. in either 400 μl PBS (10 mM sodium phosphate, 154 mM NaCl, pH 7.2), or with Freund's adjuvant (Freund's complete adjuvant (FA) for primary and Freund's incomplete adjuvant (FIA) for booster immunizations). Immunizations were performed on days 0, 28 and 56. Sera were collected on days 14, 38 and 66. The sera were analyzed by enzyme-linked immunosorbent assay (ELISA), to detect antibodies that bind to the conjugates used for immunizations.
(§2) ELISA microtiter-plates (Nunc Immunoplates Polysorb F96) were coated overnight with a 5 μg/ml solution of each antigen in PBS. The wells were then washed with PBS containing 0.05% Tween 20 (PBST) and blocked with PBS containing 5% skimmed milk powder for 1 h at r.t. After blocking, the wells were washed three times with PBST and incubated with serial dilutions of rabbit serum in PBS containing 0.05% Tween 20 and 0.5% skimmed milk powder (MPBST) for 2.5 h at r.t., followed by three washes with PBST. The plates were then incubated with alkaline phosphatase-conjugated mouse anti-rabbit IgG antibody (Sigma), diluted 1:20000 in MPBST for 1 h at r.t., washed again three times with PBST and incubated in the dark with a 1 mg/ml solution of p-nitrophenyl phosphate (Sigma) in substrate buffer (50 mM sodium carbonate buffer, 1 mM MgCl2, pH 9.6) at r.t. The absorbance was read after an appropriate time at 405 nm using a Bio-Rad Model 3550 microplate reader.
Background: In an ELISA, binding on a coated surface is turned into a signal by an enzyme label.

Series [2] has as its system Rabbits. The experiment in a line: Immunization of rabbits, ELISA cross-reaction with the same antigen attached to a different LBB (Table 2). It counts as in vivo, rabbit. Particulars: for Endpoint titers (log10) 3°: after second booster. As for the experimental part: as §1
The specificity of each hapten specific immune response was also analyzed by ELISA (Table 2). Here the ability of antibodies elicited by each conjugate to cross-react with the same antigen attached to a different LBB was measured.
as §2

A short description of series [3]: Far UV circular dichroism spectroscopy (CONTIN analysis, thermal denaturation). It counts as physicochemical. As for the experimental part:
Far ultraviolet circular dichroism (CD) spectra were measured at r.t. using a Jasco J-715 spectropolarimeter and a 0.1 cm path length quartz cell. Peptide 5 solution (50 μM) and lipopeptide 4 solution (35.7 μM) were prepared in TRIS buffer (10 mM TrisHCl, 90 mM NaCl, pH 7.4) and concentrations were determined by phosphate or amino acid analysis, as appropriate. Scan speeds of 10-100 nm/min, 1-2 second response times and a 1 nm spectral bandwidth were employed and spectra were collected at a minimum resolution of 0.5 nm. After subtraction of the blank, the spectral values were reported as mean residue ellipticity [deg. cm^2/dmol] and the lipid moiety was ignored when calculating the mean residue molecular weight.
CD spectra of low concentration samples of lipopeptide 4 (2-40 μM) were measured at 20° C. with a Jasco J-810 spectropolarimeter using a 1 cm path length quartz cell. Lipopeptide solutions were prepared in PBS (10 mM Na2HPO4, 90 mM NaCl, pH 7.4) and concentrations were determined by phosphate analysis. Scan speeds of 10 nm/min, 4 second response time and a 2 nm spectral bandwidth were employed and spectra were collected at a minimum resolution of 0.5 nm. Data were elaborated as described above.

Where [4] appears, read: far UV CD at room temperature, FIG. 6.

On to “LBB7-LY-CH: conjugate of lipopeptide 7 with LY-CH-HMB (SGIKKEIEAIKKEQEAIKKKIEAIERMLQLTVWGIKQLQARVLAVERYLGDCG; also: conjugate of lipopeptide 7 with LY-CH-HMB)”, for which the “log10 (Endpoint titers) 3°” value with Rabbits [1] was 4.41 and 4.11. Moreover, the “Endpoint titers (log10) 2°” value in the series with Rabbits [2] (ELISA antigen LBB6-LY-CH, after first booster) is 5.01 and 4.71. Moreover, the “Endpoint titers (log10) 3°” value in the series with Rabbits [2] (ELISA antigen LBB6-LY-CH) was 5.01.

As for “LBB6-LY-CH: conjugate of lipopeptide 6 with LY-CH-HMB (GGAVSKVLHLEGEVNKIKSALLSTNKAVVSLSNGVSVLTSKVLDLKNYIDKQC; also: conjugate of lipopeptide 6 with LY-CH-HMB)”, the “log10 (Endpoint titers) 2°” value in the series on Rabbits [1] (two rabbits (a, b)) stood at 5.11. Also, the “log10 (Endpoint titers) 1°” value in the series on Rabbits [1] (after primary immunization (serum day 14), two rabbits (a, b)) is 3.90 and 4.20. Besides, the “Endpoint titers (log10) 3°” value with Rabbits [2] (ELISA antigen LBB7-LY-CH) is 5.41 and 5.71.

As for “peptide 5: same peptide sequence as lipopeptide 4 but lacks the phospholipid and linker (GGAVSKVLHLEGEVNKIKSALLSTNKAVVSLSNGVSVLTSKVLDLKNYIDKQ; derived from RSV F glycoprotein)”, in series [3] (setting [4]), the “aperiodic structure content (CONTIN)” value was 42% and the “β-sheet content (CONTIN)” value is given as 25%. Besides, the “α-helix content (CONTIN)” value in series [3] (far UV CD at room temperature, pH 7.4, FIG. 6) was 33%. In series [3] (peptide concentration 35 μM), the “mid point of thermal denaturation transition” value was approximately 40 °C.

B1: LBB6-12: conjugate of lipopeptide 6 with peptide 12 (conjugate)
chain: GGAVSKVLHLEGEVNKIKSALLSTNKAVVSLSNGVSVLTSKVLDLKNYIDKQC
peptide: NCRKSIHIGPGRAFYTTGCG
modifications: cyclised or stapled
For the molecule B1, the “log10 (Endpoint titers) 3°” value in the series with Rabbits [1] is 5.01 and 4.71.

B2: LBB7-12: conjugate of lipopeptide 7 with peptide 12 (conjugate)
chain: SGIKKEIEAIKKEQEAIKKKIEAIERMLQLTVWGIKQLQARVLAVERYLGDCG
peptide: NCRKSIHIGPGRAFYTTGCG
modifications: cyclised or stapled
Turning to B2, in the series with Rabbits [1] (two rabbits (a, b)), the “log10 (Endpoint titers) 2°” value was 4.41 and 4.11. Further, the “log10 (Endpoint titers) 3°” value in the series with Rabbits [1] was 4.41 and 4.11. Moreover, in the series with Rabbits [2] (ELISA antigen LBB6-12, after primary immunization), the “Endpoint titers (log10) 1°” value is listed as less than 1.70.
